Positions count from the first letter of the chain named.
What was measured:
[1] = biological target: T1, recombinant secretory human HB-EGF manufactured by R & D System (catalogue number 259-HE/CF) (human, UniProt Q99075 63-148); assay: SPR (BIACORE T100), HB-EGF immobilized, antibody in flow
T1 construct: also called recombinant human HB-EGF; secretory HB-EGF
Description: (§1) In order to analyze binding activities of a mouse antibody KM3566 and the chimeric antibody KM3966 for human HB-EGF in reaction kinetics, the binding activity measurement was carried out using Biacore. All of the following operations were carried out using Biacore T-100 (manufactured by Biacore). Human HB-EGF (manufactured by R & D) prepared into 5 μg/ml using HBS-EP Buffer (manufactured by Biacore) was immobilized onto a CM 5 sensor chip (manufactured by Biacore) to a level of 80 RU (resonance unit) by an amine coupling method. Thereafter, each antibody diluted 5-fold from 9 nmol/l was let flow on the chip at a rate of 10 μl/min, and by analyzing the sensor-gram at each concentration, the association rate constant and dissociation rate constant of each antibody for human HB-EGF were calculated.
In order to reaction-kinetically analyze binding activity of the anti-HB-EGF humanized antibodies for human HB-EGF, it was measured in the same manner as in Example 7(2) using BIACORE T100 (manufactured by BIACORE).
As a result, human HB-EGF binding activity of the anti-HB-EGF humanized antibody HV0LV0 in which the CDRs of anti-HB-EGF chimeric antibody KM3966 were simply transplanted into human framework was reduced close to about ½ of that of the anti-HB-EGF chimeric antibody KM3966, but the binding activity of the anti-HB-EGF humanized antibody HV7LV0 in which amino acid modification was added to the H chain alone and the anti-HB-EGF humanized antibody HV7LV5 in which amino acid modification was added to the H chain and L chain was increased to almost the same level of the anti-HB-EGF chimeric antibody KM3966.

[2] = biological target: T1, recombinant secretory human HB-EGF …; assay: SPR (BIACORE T100), HB-EGF immobilized
Description: as §1
In order to reaction-kinetically analyze binding activity of the anti-HB-EGF humanized antibodies for human HB-EGF, it was measured in the same manner as in Example 7(2) using BIACORE T100 (manufactured by BIACORE). […]

[3] = biological target: bovine serum albumin (BSA) (bovine, UniProt P02769 25-607); assay: binding ELISA
bovine serum albumin (BSA), sequence (P02769 25-607 limits assumed): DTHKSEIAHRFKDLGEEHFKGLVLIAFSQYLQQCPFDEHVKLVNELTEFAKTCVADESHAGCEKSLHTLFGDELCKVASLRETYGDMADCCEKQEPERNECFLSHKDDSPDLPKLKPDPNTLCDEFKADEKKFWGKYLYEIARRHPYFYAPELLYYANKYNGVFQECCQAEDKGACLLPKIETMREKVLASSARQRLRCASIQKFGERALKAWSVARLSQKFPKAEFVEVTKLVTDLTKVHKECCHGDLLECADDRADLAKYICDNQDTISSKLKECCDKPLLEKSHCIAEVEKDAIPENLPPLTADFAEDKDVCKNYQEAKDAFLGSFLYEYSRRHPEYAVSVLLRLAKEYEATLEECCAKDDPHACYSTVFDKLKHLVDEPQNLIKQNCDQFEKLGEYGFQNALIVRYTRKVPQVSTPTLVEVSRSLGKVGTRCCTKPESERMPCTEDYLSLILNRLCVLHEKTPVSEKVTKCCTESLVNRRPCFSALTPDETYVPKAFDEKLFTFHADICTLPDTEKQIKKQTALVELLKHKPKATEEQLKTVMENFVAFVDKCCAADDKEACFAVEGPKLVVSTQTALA

[4] = biological target: T1, recombinant secretory human HB-EGF …; assay: SPR (Biacore T-100), HB-EGF immobilized on CM5 chip, antibody in flow
Description: as §1
It was confirmed based on the results that both antibodies almost the same binding activity for human HB-EGF.

[5] = biological target: T2, mouse HB-EGF (mouse, UniProt Q06186 63-148, limits assumed); assay: not described
T2 sequence (looked up): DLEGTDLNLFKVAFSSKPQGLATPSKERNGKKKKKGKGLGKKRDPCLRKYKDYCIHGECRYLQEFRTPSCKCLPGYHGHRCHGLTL

T1 sequence (Q99075 63-148 limits assumed): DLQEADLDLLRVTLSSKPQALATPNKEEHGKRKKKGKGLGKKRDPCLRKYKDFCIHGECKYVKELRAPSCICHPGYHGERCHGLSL

B1: anti-HB-EGF humanized antibody HV7LV0 (antibody, V domains shown)
VH: QVQLVQSGAEVKKPGASVKLSCKASGYTFRTYGITWVRQAPGQGLEWIGEIFPGSGNTYYNEKFKGRATLTADKSTSTAYMELSSLRSEDTAVYFCARESFSDGYYGYFDYWGQGTLLTVSS
VL: DIVMTQSPDSLAVSLGERATINCKSSQSLLYSTNQKNSLAWYQQKPGQPPKLLIYWASTRESGVPDRFSGSGSGTDFTLTISSLQAEDVAVYYCQQYYRYPLTFGQGTKLEIK
notes: Whole humanized antibody from pKANTEX93
[1]
  kon: 174000 M⁻¹ s⁻¹

B2: anti-HB-EGF humanized antibody HV0LV0 (antibody, V domains shown)
VH: B1 VH with L20V, R30T, I48M, A68V, L70I, F95Y, L118V
VL: B1 VL
notes: Whole humanized antibody expressed from pKANTEX93
[1]
  kon: 104000 M⁻¹ s⁻¹
[2]
  human HB-EGF binding activity relative to KM3966: ~0.5 fold of KM3966

B3: anti-HB-EGF humanized antibody HV7LV5 (antibody, V domains shown)
VH: B1 VH
VL: B1 VL with L15V, A19V, I21M, P49S, L84V
notes: as for B1
[1]
  kon: 170000 M⁻¹ s⁻¹

B4: anti-HB-EGF monoclonal antibody KM3566 (antibody, V domains shown)
VH: QVQLQQSGTELARPGASVKLSCKASGYTFRTYGITWVKQRTGQGLEWIGEIFPGSGNTYYNEKFKGKASLTADKSSSTAYMQLSSLTSEDSAVYFCARESFSDGYYGYFDYWGQGTTLTVSS
VL: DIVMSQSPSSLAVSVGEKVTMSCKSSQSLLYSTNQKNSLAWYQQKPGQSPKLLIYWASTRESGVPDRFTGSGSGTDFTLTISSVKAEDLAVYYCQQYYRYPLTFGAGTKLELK
notes: also called anti-HB-EGF mouse antibody KM3566; monoclonal antibody produced by hybridoma KM3566 (FERM BP-10490)
[3]
  binding result: no binding (tested: diluted stepwise from 10 µg/ml)
[4]
  kon: 270000 M⁻¹ s⁻¹
[5]
  binding result: no binding

B5: anti-HB-EGF chimeric antibody KM3966 (antibody, V domains shown)
VH: B4 VH
VL: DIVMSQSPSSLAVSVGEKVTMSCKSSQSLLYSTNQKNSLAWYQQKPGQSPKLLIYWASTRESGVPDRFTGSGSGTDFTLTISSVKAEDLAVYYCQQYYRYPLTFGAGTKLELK
notes: Human chimeric IgG class antibody made with the vector pKANTEX93 (WO 97/10354); also called human chimeric antibody KM3966; anti-HB-EGF monoclonal antibody KM3966
[1]
  kon: 187000 M⁻¹ s⁻¹
[4]
  kon: 240000 M⁻¹ s⁻¹
[5]
  binding result: no binding

Reference: US20110034673A1 (Kyowa Kirin, published 2011)
